Experimental data: the DeepSol protein solubility set

Test: soluble on expression in E. coli; label from the status in PepcDB or PDB records

**Q.** For “MLKNEETEKKLNLNQQRLGTVVAVLKSVNAKKVIDLGCGEGNLLSLLLKDKSFEQITGVDVSYSVLERAKDRLKIDRLPEMQRKRISLFQSSLVYRDKRFSGYDAATVIEVIEHLDENRLQAFEKVLFEFTRPQTVIVSTPNKEYNFHYGNLFEGNLRHRDHRFEWTRKEFQTWAVKVAEKYGYSVRFLQIGEIDDEFGSPTQMGVFTLGAGGHHHHHH”, which “soluble on expression in E. coli” value is on record?
**A.** soluble

**Q.** For “MGSDKIHHHHHHMNSILINHKAKADISISCFGEVLWDCFPDGKRVGGAPLNVCVRLNALGIKGSMISAVGDDPLGHELVSFIDDRGVNRDCIAIDPVKSTSTVQVTLDKNGSASYDIVADTAWDNIALTEDIIEQVNRTDVLVFGSLIGRNDVSLNTLTALVKLASFSVFDVNLRAPHYQIDSVINLMKKADFIKLNDDELYEIAKAMGSPFHSLEQNLDFVAIQTNTDYLCVTKGSHGALLSIGGQKYYNSGYLVNVVDTVGAGDSFLGSLLYQLCSDSNPQYAIDFACAVGAMVAESHGATPMITLNEIQAFMHPV”, which “soluble on expression in E. coli” value is on record?
**A.** not soluble

**Q.** With “GPSLSGELHIFCSVTAAYSHLPPILDRFRAEHPSVEIKLTTGDAADAMEKVVTGEADLAIAGKPETLPGAVAFSMLENLAVVLIAPALPCPVRNQVSADKPDWSTVPFIMADQGPVRRRIELWFRRNKISNPMIYATVGGHEAMV” as the sequence, how does the “soluble on expression in E. coli” value read?
**A.** not soluble

**Q.** Which “soluble on expression in E. coli” value does the source give for “MTLRKILALTCLLLPMMASAHQFETGQRVPPIGITDRGELVLDKDQFSYKTWNSAQLVGKVRVLQHIAGRTSAKEKNATLIEAIKSAKLPHDRYQTTTIVNTDDAIPGSGMFVRSSLESNKKLYPWSQFIVDSNGVALGAWQLDEESSAVVVLDKDGRVQWAKDGALTPEEVQQVMDLLQKLLK” here?
**A.** not soluble

**Q.** Which “soluble on expression in E. coli” value does the source give for “MLEEIPSSVEADLMPNLDSNVSSDNGTSKRFRIQANAVEARSFFASLVKGTEYSVAIHPAVQGNITVNLSDVTLDEVLSVVQNMYGYDVMKSGKVIQVYPAGMRTVTIPVDYLQFKRSGRSLTSIVTGSVTSAGTSNSGGSSDSSDSSDSNNSNNGNDSSTTSTGGTRIETITESDFWPMLQQAVANLIGSGKGQSVVVTPQAGVITVRAFPDDIREVREFLGVSQERMQRQVILEAKILEVTLSDGYQQGINWSNLSASIGNSGSIIVNRPASALPPLDAIGTLLGGQTNVTISDGNFEAVLNFMSTQGDLNVLSSPRITAANNQKSVIKVGTDQYFVTELSSNAGNGENSNAVPEVELTPFFSGISLDVTPQIDNKGNVFLHVHPAVIEVTEEVKQLNLGGDFQNIQLPLAKSSIRESDSVIRAKDGDVVVIGGLMKQQNVEQVSKVPFLGDVPALGHLFRNTSNVTQKTELVILLKPTVVGVNSWQKELERSRDLLQEWFPDAQLEHHHHHH” here?
**A.** soluble

**Q.** Which “soluble on expression in E. coli” value does the source give for “MIDITLPLTDIHRHLDGNIRAQTILDLGRQFNIALPAQTLETLIPHVQVTSTEPDLVSFLTKLDWGVKVLASLDACRRVAFENIEDAARNGLHYVELRFSPGYMAMAHQLPIAGVVEAVIDGVRDGCNTFGVEARLIGIMSRTFGEAACLQELDALLAHRENITALDLAGDELGFPGSLFLSHFNRARDAGWHITVHAGEAAGPESIWQAIRELGAERIGHGVKAVEDRALMDFLAQQRIGIESCLTSNIQTSTVASLADHPLKTFLEHGVLASLNTDDPAVQGVDIIHEYHVAAPAAGLSREQIRQAQINGLEIAFLSDSEKRALREKVAEA” here?
**A.** not soluble

**Q.** Which “soluble on expression in E. coli” value does the source give for “MLNSRRIVVVLPAYNAEKTLEMTYAEIPFEHVDHVLLVDDASRDRTAQVAERLGIKTIVHDRNKGYGANQKTCYRAALDLGADIVIMVHPDYQYTPKLITAMAAMIAYGEFDAVLGSRILGIGALKGGMPLYKYVANRVLTLVENLLLSHKLSEYHTGYRAFSRQVLEQLPLDANGDDFVFDNQMLAQIIWHGYRIGELSCPTKYFEDASSINFRRSVIYGLGVLGTALEFRLARMGLIRSGRFTPRNDQAAAQLEHHHHHH” here?
**A.** soluble

**Q.** With “MSLAETVLEKARAKNEIRIATSDSLKPWGYMDDTNKPIGFNLDVSREMGKRMGFGKVTFVTDSYKNFISGLNADRYDMVVAILTPTEERRKSADFSNPYMVVSKNIFVRDDNTSIRSLEDLAGKRLGVAAGTTDEAWARQHVKDAQIRVYDNFFLALQDLAIGRVDARITDRVTGMTAAKEGRFPVKIAGPDLSQDIGAIAYKKGQDDLAAIVNKVIQEMVDDGSLNEISRKWLAGIEMGEELKKLPKDAREGHHHHHH” as the sequence, how does the “soluble on expression in E. coli” value read?
**A.** soluble

**Q.** With “MLPRAEQKQQTRRALLDAAHQLMESGRGFGSLSLREVARTAGIVPTGFYRHFEDMDQLGLALVIEVGQTFRETIRLVRHNEFAMGGLIRASVKIFLERVAANRSQFLFLAREQYGGSLKVRQALGALREGISADLTADLAKMPKWQHLNADALSIIADLVVKSVFAMLPELIDPPPASLAPHLTPQAKITQQLRFIFIGARHWRGLGTHD” as the sequence, how does the “soluble on expression in E. coli” value read?
**A.** not soluble

**Q.** For “GPGSMPATEMQSMEMDTVQSMYDSYELISVDPPTYSVLLTATADDPPELRVTIVYDSEGYPETAAPTVRLEHIAKHRRMQTAALAKEIEDLCAEQIGMHSVISVLQKAQEYLTDYAAMEEKAELQRRGDALTKAAASVSTAAPDPTVRIGTAVTRELFAEWSEKHIAEKLQKRVLSEKKSTKLTGRQLWDGTLKNADWDLFEALEDEQDVDLYTLANGEGEEADEVEYDLDDPAEEG”, which “soluble on expression in E. coli” value is on record?
**A.** soluble

**Q.** With “MLYIFTPTFNRGYRLSYLYDSLCNQTNKNFIWLIVDDGSEDSTKEIVSNYIKENKVSIVYLYKRNGGKHSAYNLAMRYMQPSDYHVCVDSDDWLLEDAVEIIFKDLESLTLSNRYVGLVYPRYSLNQGNNWLNPKILEVNIPDLKYKYHLKIETCIVINNAYLVDFEFPCFEGENFLSEEIMYIYLSKKGYFCPQNRKIYCFDYLEDGLTSNIFKLWRKNFKGTIFSLENSYMYVMSFPNIFDRWWSAIKIKMNIQALKMTTLGVIPTLKSEEAGWKILLGFSYLWKVARFKKSELEHHHHHH” as the sequence, how does the “soluble on expression in E. coli” value read?
**A.** soluble

**Q.** With “MSLTEKVSVFALGGAGEIGKNMYVVELDEDIFVIDAGLMFPGDEMLGIDKVIPDISYLKENKERIQGIFITHGHEDHIGALSYVLRDLKVPVYGTRLTLGLIEIKLKEAGLLKKADLRPIDAKTKLTVAGHFITFFRVNHSIPDAVGVCIQTSQGAIVHTGDFKFDYTPVDGKQADFGKIAAIGQRGVLCLLSDSTNAERPGMSGSESTVGSELNDVIYEAPGRVIVASFASNVHRLQQVFAAAEANNEGHHHHHH” as the sequence, how does the “soluble on expression in E. coli” value read?
**A.** soluble

**Q.** For “MSLDIKTLKGFKDYLPKDSLIRIHIVRQIFSVLNSYNFDLIDTPVLEYSDLLLKKSGDETEKQIYRFKDNGGRDVSMRFDLTVPFARFVATNISALKLPFRRSQFGKVFRGENSQKGRYREFMQFDFDIVGEDTFRGDAEILSVVYYGLEEIFLNFIEGINKKFIIHYSHIGILNSFFEKLGLKEKSIFILRNIDKIDKIGIDKVKEALLLEIEKEAVDSILSLVSLQGTFKDKIQALKSILGDNESIKRVEDVFQHLSLLKIQDSFNLNLKISRGLDYYTGIVFESEVFGSNMGSVCSGGRYDNLVSSFSNSIQKISGVGGSFGVDRIKDIIDLEKFSYIKIFVTKARSKVLIVNLDSALQNYYYELATRFRNHDYSKVKNISCEVYFKNKNGKNIKEQIEYALSKEIRFLVFVGQEEYKENKMKVRDLTKKEELLLSFEESINLIKCNEKLEGHHHHHH”, which “soluble on expression in E. coli” value is on record?
**A.** soluble

**Q.** Which “soluble on expression in E. coli” value does the source give for “SRVLMEQPGYAQMRKLILFQQYQFEPLFVRQKVGFDIDSVTQSTADALYITPSNQYPMGTTLNTEQRAQIIEWASNQEAWILEDDYDSEFQFAHRPYTSLQGLAAQMGRDERVLYIGSFSKVMFNGLRLGYLVVPESLVDKCLMVKDALSGDTPSHIQAAMADFISEGSLLRHIRKMRRVYKSKHEQVCFSIQHYFGDKVRVISQAAGLHVTLSWQQGIDENTWTQRAKKAGIVMRPVSFYEHPDFKARDWQGVVIGYGNVRLDNIDPLIKRLFELFDV” here?
**A.** not soluble

**Q.** Which “soluble on expression in E. coli” value does the source give for “MTLDDDDYIKQMELQRKAFESQFGSLESMGFEDKTKNIRTEVDTRDSSGDEIDNSDHGSDFKDGTIESSNSSDEDSGNETAEENNQDSKPKTQPKVIRFNGPSDVYVPPSKKTQKLLRSGKTLTQINKKLESTEAKEEKEDETLEAENLQNDLELQQFLRESHLLSAFNNGGSGSTNSGVSLTLQSMGGGNDDGIVYQDDQVIGKARSRTLEMRLNRLSRVNGHQDKINKLEKVPMHIRRGMIDKHVKRIKKYEQEAAEGGIVLSKVKKGQFRKIESTYKKDIERRIGGSIKARDKEKATKRERGLKISSVGRSTRNGLIVSKRDIARISGGERSGKFNGKKKSRR” here?
**A.** not soluble

**Q.** With “MAHHHHHHMENILSKVDKIEPFDPKVKEQYNQFKYDVTKQAIESLRERIPQRIIYFNTLVNVNAEPGSILDVRDLDTKTYKYTSNQTEENARKKHKTSDHNVTEKKKDSIEMNTQNDINYEEKKIVIDENIIYTHYVPSHKQISAELEKIKAYSSELIEIIGNIKLWIQLNVPRIEDGNNFGVGIQEEAIQELARVEESAFNLYDAIVKYYMDRAKLATKVIKYPNVHDYQEAVQELDKKEWIHIKITIIDMRNNYIMLYDLLCKNWEKVVKPKNEDAHHRMTF” as the sequence, how does the “soluble on expression in E. coli” value read?
**A.** soluble

**Q.** For “MLKVEMLSTGDEVLYGQIVDTNAAWLADFFFHQGLPLSRRNTVGDNLDDLVTILRERSQHADVLIVNGGLGPTSDDLSALAAATAKGEGLVLHEAWLKEMERYFHERGRVMAPSNRKQAELPASAEFINNPVGTACGFAVQLNRCLMFFTPGVPSEFKVMVEHEILPRLRERFSLPQPPVCLRLTTFGRSESDLAQSLDTLQLPPGVTMGYRSSMPIIELKLTGPASEQQAMEKLWLDVKRVAGQSVIFEGTEGLPAQISRELQNRQFSLTLSEQFTGGLLALQLSRAGAPLLACEVIPSQEETLAQTAHWITERRANHFAGLALAVSGFENEHLNFALATPDGTFALRVRFSTTRYSLAIRQEVCAMMALNMLRRWLNGQDIASEHGWIEVVESMTLSV”, which “soluble on expression in E. coli” value is on record?
**A.** not soluble

**Q.** With “MGSDKIHHHHHHMLTRLELAKDWVRDAGNFLKENIAAPLEITEKTRYDDLVTNFDKEVQEQIVANILHHFPEDKILAEEDEEKIKFDSEIPHLWVLDPIDGTTNFIVQKDNFAVMLAYYEYGVGKFGLILDVMKDKLYWCDSHKAFCNQKELELKERPLAQSLLGVNSYMYRSNSGGLLDLSHQTLGVRIIGSAGISYGQLLEGKIIGYFSSLQPWDYAAGSIIAERIGYVTLTISGESPHFNCRERVFTAPSYLISEIQKYIKK” as the sequence, how does the “soluble on expression in E. coli” value read?
**A.** not soluble

**Q.** Which “soluble on expression in E. coli” value does the source give for “MGSDKIHHHHHHMTKKVLILGAHGKIARLAEKEFLEKTDDSLKLFLRKASRLNPVQPDRETVIEGDATNLEQLVAAMQGVDAVYANLAGGDIKQQAQAVVKAMDKVGIKRLVWISTLGIYDEVPGKFGEWNNSTLGSYITNYRAAADVIEDSDLDYTIVRPAWLTNNDEVDFEVTQKGEVFKGTEVSRKSIAHIVVELIQNNTELKHSIGVNKPNTDGDKPSWY” here?
**A.** not soluble

**Q.** For “MNNYLKNLKEVFARIFRPNNRKSTRTYLQRSISYWRRNSIYLDNIYNKISTDTAQLRFKHVKITRNPGGVDSMVWYEHSDLAEVLTVSPNPLEVPVVFWSNVTRAMLRDGVAVVVPRWKNGRLVEIWLAKKTVTWTAESVELMLDDVAVELPLTDVWVFENPKLNVTAQLNQITELIDINLNALTEKLSDGNSSLRGFLKLPTKAADEHLKQQARDRVDSMLDLAKNGGIAYLEQGEEFQELSKDYSTASKEELEFLKSQLYNAHGINEKLFTCDYTEEQYRAYYSSVMKLYQRVYSEEINRKYFTKTARTQGNKLLVFFDMADMISFKDLVEGGFKSKYAGLMNSNEFRETYLGLPGYEGGEVFETNLNAVRIGAEESE”, which “soluble on expression in E. coli” value is on record?
**A.** not soluble

**Q.** With “MGHHHHHHSHMASGSNWLSGVNVVLVMAYGSLDLKEEIDIRLSRVQDIKYEPQLLADDDARLLQLETQGNQKIPFHSEGRHPRSLMGKNFRSYLLDLRNTSTPFKGVRKALIDTLLDGYETARYGTGVFGQNEYLRYQEALSELATAVKARIGSSQRHHQSAAKDLTQSPEVSPTTIQVTYLPSSQKSKRAKHFLELKSFKDNYNTLESTL” as the sequence, how does the “soluble on expression in E. coli” value read?
**A.** not soluble
